T1: EhPHDK (PH domain containing protein kinase), full-length recombinant protein (E. histolytica, UniProt C4M4G9 1-433)
T1 sequence (looked up): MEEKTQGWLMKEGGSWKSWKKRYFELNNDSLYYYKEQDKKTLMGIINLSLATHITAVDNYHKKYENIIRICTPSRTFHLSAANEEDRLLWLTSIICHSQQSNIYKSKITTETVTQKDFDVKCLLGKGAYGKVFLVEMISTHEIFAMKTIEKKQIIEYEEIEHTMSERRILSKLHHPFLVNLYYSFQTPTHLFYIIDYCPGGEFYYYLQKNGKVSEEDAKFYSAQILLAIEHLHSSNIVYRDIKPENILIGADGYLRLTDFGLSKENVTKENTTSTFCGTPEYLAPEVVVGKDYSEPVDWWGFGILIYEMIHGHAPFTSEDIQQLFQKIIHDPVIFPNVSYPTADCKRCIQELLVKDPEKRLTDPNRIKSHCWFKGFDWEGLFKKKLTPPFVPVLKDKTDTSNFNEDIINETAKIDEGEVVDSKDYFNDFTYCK

B1: EhCaBP1 (calcium binding protein 1), recombinant (natural protein, E. histolytica, UniProt P38505 1-134, looked up)
chain: MAEALFKEIDVNGDGAVSYEEVKAFVSKKRAIKNEQLLQLIFKSIDADGNGEIDQNEFAKFYGSIQGQDLSDDKIGLKVLYKLMDVDGDGKLTKEEVTSFFKKHGIEKVAEQVMKADANGDGYITLEEFLEFSL

Experiments:
[1] = target: T1, EhPHDK (PH domain containing protein …); assay: BLI
[2] = target: B1; assay: BLI

Row | Binder | Kd [1] [µM] | Kd [2] [µM]
1 | B1 | 32 | –
2 | IYKSKITTETVTQKD [EhPHDK Peptide 2 (hinge region, IQ motif-like sequence)] | – | 243

Source: paper doi:10.1101/2025.10.24.684426 (bioRxiv, 2025)
